In PMC6769508, “Cooperative Binding of KaiB to the KaiC Hexamer Ensures Accurate Circadian Clock Oscillation in Cyanobacteria” (International Journal of Molecular Sciences, 2019):
Several values for one entry are separate records, joined by “and”; a condition that tells them apart may be missing. Equal entries are not always repeated.

B1: TeKaiCDD, T. elongatus KaiC mutant with Ser431 and Thr432 substituted by aspartate residues (natural protein, Thermosynechococcus elongatus, UniProt Q79V60 1-518, looked up)
chain: MTNLPEHQSSPTEQSSAEVKKIPTMIEGFDDISHGGLPQGRTTLVSGTSGTGKTLFAVQFLYNGITIFNEPGIFVTFEESPQDIIKNALSFGWNLQSLIDQGKLFILDASPDPDGQEVAGDFDLSALIERIQYAIRKYKATRVSIDSVTAVFQQYDAASVVRREIFRLAFRLKQLGVTTIMTTERVDEYGPVARFGVEEFVSDNVVILRNVLEGERRRRTVEILKLRGTTHMKGEYPFTINNGINIFPLGAMRLTQRSSNVRVSSGVKTLDEMCGGGFFKDSIILATGATGTGKTLLVSKFLETGCQQGERALLFAYEESRAQLSRNASSWGIDFEELERRGLLRIICAYPESAGLEDHLQIIKSEIADFKPSRVAIDSLSALARGVSNNAFRQFVIGVTGFAKQEEITGFFTNTTDQFMGSNSITESHIDDITDTILLLQYVEIRGEMSRAINVFKMRGSWHDKGIREYVITEKGAEIRDSFRNFEGIISGTPTRISVDEKTELARIAKGMQDLESE
notes: KaiC, Thermosynechococcus elongatus (strain BP-1), Ser431 and Thr432 substituted by aspartate (mimics the fully phosphorylated form); Seen as a homohexamer by native MS; also called TeKaiCDD homohexamer; source: E. coli, GST-tagged, purified after cleavage of the GST-tag

How the values were obtained:
[1] = biological target: the molecule itself; assay: SEC; Superdex 200 increase; 20 mM Tris-HCl (pH 8.0), 150 mM NaCl, 5 mM MgCl2, 0.5 mM EDTA, 1 mM DTT; TeKaiB or TeKaiBDD in the absence of KaiC
[2] = biological target: B1; assay: native MS; TeKaiCDD (20 µM) titrated with KaiB or SasA proteins, incubated at 37 °C for 6 h, buffer-exchanged into 150 mM ammonium acetate, pH 6.8; nanoflow ESI; conditions: both partners purified
[3] = biological target: the molecule itself; assay: as above

Binder | stoichiometry N [1] | stoichiometry N [2] | further results
TeKaiB, wild-type T. elongatus KaiB (natural protein, Thermosynechococcus elongatus, UniProt Q79V61 1-108, looked up, KaiB, Thermosynechococcus elongatus (strain BP-1), wild type; source: E. coli, GST-tagged, purified after cleavage of the GST-tag) MAPLRKTYVLKLYVAGNTPNSVRALKTLNNILEKEFKGVYALKVIDVLKNPQLAEEDKILATPTLAKVLPPPVRRIIGDLSNREKVLIGLDLLYEEIGDQAEDDLGLE | 4 |  | 
TeKaiBDD, TeKaiB with the DD mutation (Arg23 and Lys26 to aspartate) (natural protein, Thermosynechococcus elongatus, UniProt Q79V61 1-108, looked up, KaiB, Thermosynechococcus elongatus (strain BP-1), Arg23 and Lys26 substituted with aspartate; Named only in the SEC methods; source: E. coli, GST-tagged, purified after cleavage of the GST-tag) MAPLRKTYVLKLYVAGNTPNSVDALDTLNNILEKEFKGVYALKVIDVLKNPQLAEEDKILATPTLAKVLPPPVRRIIGDLSNREKVLIGLDLLYEEIGDQAEDDLGLE | 4 |  | 
TeKaiB_(10–108), N-terminal truncated mutant of T. elongatus KaiB (domain or fragment, Thermosynechococcus elongatus, UniProt Q79V61 10-108, looked up, KaiB, Thermosynechococcus elongatus (strain BP-1), residues 10-108 (N-terminal segment deleted); source: E. coli, GST-tagged, purified after cleavage of the GST-tag) LKLYVAGNTPNSVRALKTLNNILEKEFKGVYALKVIDVLKNPQLAEEDKILATPTLAKVLPPPVRRIIGDLSNREKVLIGLDLLYEEIGDQAEDDLGLE |  | 6 binder chains per KaiC hexamer | 
TeKaiB_(10–108/DD), TeKaiB_(10–108) with Arg23 and Lys26 replaced with aspartate (domain or fragment, Thermosynechococcus elongatus, UniProt Q79V61 10-108, looked up, KaiB, Thermosynechococcus elongatus (strain BP-1), residues 10-108, Arg23 and Lys26 substituted with aspartate; source: E. coli, GST-tagged, purified after cleavage of the GST-tag) LKLYVAGNTPNSVDALDTLNNILEKEFKGVYALKVIDVLKNPQLAEEDKILATPTLAKVLPPPVRRIIGDLSNREKVLIGLDLLYEEIGDQAEDDLGLE |  | 1 binder chains per KaiC hexamer and 3 binder chains per KaiC hexamer and 2 binder chains per KaiC hexamer | 
B1 |  |  | stoichiometry N [3]: 6
